# Measured values: patent publication US11578136B2, “Compositions and methods for treating cancer” (INNATE PHARMA, priority 2017, dated 2023)
# Entries after “also recorded” stand apart in the source; their conditions may differ.
# Columns and labels:
# [1] = molecular target: T1, soluble recombinant human CD39 protein (Homo sapiens, UniProt P49961); experiment: Inhibition of the enzymatic activity of soluble CD39 (Cell Titer Glo); assay type: biochemical
# T1 construct: made in house; host or cells: CHO cells
# T1 sequence (P49961 with tags, fused parts or gaps): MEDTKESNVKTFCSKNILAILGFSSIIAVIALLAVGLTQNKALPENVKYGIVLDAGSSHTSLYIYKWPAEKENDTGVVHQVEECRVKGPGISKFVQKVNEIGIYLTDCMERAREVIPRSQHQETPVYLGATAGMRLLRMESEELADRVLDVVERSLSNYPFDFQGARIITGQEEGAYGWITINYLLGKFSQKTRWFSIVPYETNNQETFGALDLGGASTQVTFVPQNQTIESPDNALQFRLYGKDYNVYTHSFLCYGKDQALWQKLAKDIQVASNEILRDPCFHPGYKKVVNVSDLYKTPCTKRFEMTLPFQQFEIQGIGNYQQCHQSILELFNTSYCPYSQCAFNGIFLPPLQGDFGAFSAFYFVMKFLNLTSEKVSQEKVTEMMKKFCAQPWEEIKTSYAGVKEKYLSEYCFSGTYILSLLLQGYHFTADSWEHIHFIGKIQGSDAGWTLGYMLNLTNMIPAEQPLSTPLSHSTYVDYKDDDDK
# Description: The inhibition by antibodies of the enzymatic activity of soluble CD39 protein produced was evaluated using Cell Titer Glo™ (Promega, reference G7571) that allows assessment of ATP hydrolysis through use of a reagent that generates a luminescent signal proportional to the amount of ATP present. In this way, inhibition of the soluble-CD39-meidatd ATP hydrolysis can be assessed. Briefly, dose ranges of anti-CD39 antibodies from 100 μg/ml to 6×10^−3 μg/ml were incubated with 400 ng/ml of soluble recombinant human CD39 protein having the amino acid sequence described in the Methods section (SEQ ID NO: 45), for 1 h at 37° C. 20 μM ATP was added to the plates for 30 additional minutes at 37° C. before addition of CTG (Cell Titer Glo) reagent. Emitted light was quantified using an Enspire™ luminometer after a short incubation period of 5 min in the dark. Anti-CD39 antibody efficacy was determined by comparing emitted light in presence of antibody with ATP alone (maximal light emission) and ATP together with soluble CD39 protein (minimal light emission).
# [2] = molecular target: T2, human CD39 (vascular isoform) (Homo sapiens, UniProt P49961); experiment: ELISA titration on recombinant human CD39; assay type: binding; details: result in words
# T2 sequence (P49961 1-510): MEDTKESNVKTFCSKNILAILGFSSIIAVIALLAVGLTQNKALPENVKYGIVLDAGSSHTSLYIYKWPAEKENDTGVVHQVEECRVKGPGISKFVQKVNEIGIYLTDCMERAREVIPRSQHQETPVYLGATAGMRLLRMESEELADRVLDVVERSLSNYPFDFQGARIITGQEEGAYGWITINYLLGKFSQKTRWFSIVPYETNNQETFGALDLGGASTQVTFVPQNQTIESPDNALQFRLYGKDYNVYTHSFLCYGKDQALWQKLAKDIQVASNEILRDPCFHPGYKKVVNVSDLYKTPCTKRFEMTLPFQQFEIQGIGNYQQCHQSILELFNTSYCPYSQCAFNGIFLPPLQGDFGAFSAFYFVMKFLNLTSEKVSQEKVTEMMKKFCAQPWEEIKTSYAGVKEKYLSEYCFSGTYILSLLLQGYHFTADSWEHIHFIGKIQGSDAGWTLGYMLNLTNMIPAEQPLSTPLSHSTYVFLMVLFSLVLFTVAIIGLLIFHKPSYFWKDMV
# Description: (§1) Antibody I-394 was tested for binding to recombinant human CD39 isoforms (Rec-huCD39 isoforms) having amino acid sequences shown below were coated in 96-well plate in PBS 1× at 500 ng/ml or 1 μg/ml at 4° C. overnight. Wells were washed in TBS Tween 20, and further saturated 2H at RT in TBS Blocking buffer. Dose range concentration of primary antibody was incubated in TBS blocking buffer for 2 h at RT. Wells were washed in TBS Tween 20. […] Optical density was measured on Enspire™ at OD=450.
# [3] = molecular target: T3, Human CD39-L3 (NTPDase3, ENTPD3) (Homo sapiens, UniProt O75355); experiment: ELISA titration on CD39-L3; assay type: binding; details: result in words
# T3 sequence (O75355 1-529): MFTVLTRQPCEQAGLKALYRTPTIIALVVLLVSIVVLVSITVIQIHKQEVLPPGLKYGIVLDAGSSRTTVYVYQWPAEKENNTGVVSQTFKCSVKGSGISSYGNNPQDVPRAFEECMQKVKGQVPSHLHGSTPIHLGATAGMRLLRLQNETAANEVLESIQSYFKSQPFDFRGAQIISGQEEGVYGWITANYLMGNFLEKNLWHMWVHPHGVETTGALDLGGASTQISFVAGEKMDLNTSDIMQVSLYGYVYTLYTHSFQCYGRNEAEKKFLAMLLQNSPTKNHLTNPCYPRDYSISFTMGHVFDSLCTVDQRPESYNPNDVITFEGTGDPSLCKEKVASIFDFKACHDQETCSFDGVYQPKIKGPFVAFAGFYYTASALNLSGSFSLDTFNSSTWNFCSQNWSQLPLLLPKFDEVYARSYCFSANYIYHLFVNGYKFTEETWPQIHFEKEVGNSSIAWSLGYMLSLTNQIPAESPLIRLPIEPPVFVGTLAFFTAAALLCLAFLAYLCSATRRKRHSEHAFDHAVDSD
# Description: as §1
# [4] = test system: monocyte-derived DC (moDC); experiment: Activation of dendritic cells in presence of ATP (flow cytometry); assay type: cell-based, human; details: ATP at 0.125 mM, 0.25 mM or 0.5 mM; I-394 at 10 μg/ml
# Description: While ATP has pro-inflammatory, CD39-mediated catabolism of ATP is believed to be able to impair dendritic cell (DC) activation, in turn altering a broader adaptive immune response against tumor antigen. In order to evaluate whether CD39 blockade using anti-CD39 antibodies could overcome CD39-mediated alteration of dendritic cell (DC) activation in the presence of ATP, we incubated monocyte-derived DC (moDC) with anti-CD39 antibodies in the presence of ATP.
# Briefly, human monocytes were purified from human healthy blood and differentiated into MoDC in presence of GM-CSF and IL-4 during 6 days. […] In some cases, MoDC were preincubated during 1 hours in presence of CD39 inhibitor: […] (Tocris, 250 μM), CD73 inhibitor: APCP (Tocris 50 μM), anti-CD39 blocking antibody I-394 or BY40 (for BY40 see WO2009/095478), or anti-CD73 blocking antibodies. LPS (Invivogen, 10 ng/ml) was used as positive control. To assess resulting effect of ATP-mediated DC activation on CD4 T cells activation, ATP-activated DC were washed and then incubated with allogenic CD4 T cells (ratio 1 MoDC/4 T cells) for a mixed lymphocytes reaction (MLR) during 5 days. T cells activation and proliferation were analyzed through CD25 expression and Cell Trace Violet dilution by flow cytometry (FIG. 8).
substance,measurement,setting,value
"I-394: anti-CD39 antibody, VH SEQ ID NO: 6, VL SEQ ID NO: 7; human IgG1 Fc with L234A/L235E/G237A/A330S/P331S","maximum inhibition achieved, soluble CD39",[1],74.9%
same,relative potency of inhibition of soluble CD39 (FIG. 2B),"[1]; ranking among I-394, I-395, I-396",greatest potency
same,inhibition of the enzymatic activity of soluble CD39 protein,"[1]; result in words, 400 ng/ml sCD39, 20 μM ATP",strong inhibition; also recorded: inhibits
same,binding to CD39 in ELISA,[2],bound
same,binding to CD39-L3 in ELISA,[3],not
same,ATP-induced moDC activation as assessed by HLA-DR or CD83 expression,[4],permitted moDC activation
